One experiment deals with T1, Rpn8 (recombinant lid) (S. cerevisiae, UniProt Q08723 1-338).
T1 sequence: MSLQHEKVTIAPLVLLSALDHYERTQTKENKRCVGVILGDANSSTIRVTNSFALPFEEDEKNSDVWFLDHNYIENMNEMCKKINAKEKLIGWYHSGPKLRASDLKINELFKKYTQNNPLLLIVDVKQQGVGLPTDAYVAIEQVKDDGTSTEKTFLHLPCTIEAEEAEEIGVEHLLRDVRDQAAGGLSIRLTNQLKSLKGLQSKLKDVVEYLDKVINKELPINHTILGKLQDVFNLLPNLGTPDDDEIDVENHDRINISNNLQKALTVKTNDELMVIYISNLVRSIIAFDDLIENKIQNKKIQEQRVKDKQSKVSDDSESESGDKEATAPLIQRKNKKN
The experiment is described as follows: negative-stain electron microscopy, 3D reconstruction.

In another experiment the target is T2, Rpn5 (recombinant lid) (S. cerevisiae, UniProt Q12250 1-445).
T2 sequence: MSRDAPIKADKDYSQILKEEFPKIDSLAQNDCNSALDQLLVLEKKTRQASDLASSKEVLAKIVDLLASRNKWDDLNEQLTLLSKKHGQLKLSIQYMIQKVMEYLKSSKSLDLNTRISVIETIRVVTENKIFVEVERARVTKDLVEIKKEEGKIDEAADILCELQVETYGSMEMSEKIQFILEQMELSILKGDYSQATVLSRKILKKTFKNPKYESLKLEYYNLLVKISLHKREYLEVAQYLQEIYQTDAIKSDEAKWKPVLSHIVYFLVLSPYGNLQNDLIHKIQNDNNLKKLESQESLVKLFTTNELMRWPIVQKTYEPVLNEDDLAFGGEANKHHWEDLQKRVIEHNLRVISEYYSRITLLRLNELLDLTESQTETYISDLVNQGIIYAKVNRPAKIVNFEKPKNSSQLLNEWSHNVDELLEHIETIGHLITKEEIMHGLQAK
The experiment is described as above.

The target of a further experiment is T3, Rpn1 (S. cerevisiae, UniProt P38764 1-993).
T3 sequence: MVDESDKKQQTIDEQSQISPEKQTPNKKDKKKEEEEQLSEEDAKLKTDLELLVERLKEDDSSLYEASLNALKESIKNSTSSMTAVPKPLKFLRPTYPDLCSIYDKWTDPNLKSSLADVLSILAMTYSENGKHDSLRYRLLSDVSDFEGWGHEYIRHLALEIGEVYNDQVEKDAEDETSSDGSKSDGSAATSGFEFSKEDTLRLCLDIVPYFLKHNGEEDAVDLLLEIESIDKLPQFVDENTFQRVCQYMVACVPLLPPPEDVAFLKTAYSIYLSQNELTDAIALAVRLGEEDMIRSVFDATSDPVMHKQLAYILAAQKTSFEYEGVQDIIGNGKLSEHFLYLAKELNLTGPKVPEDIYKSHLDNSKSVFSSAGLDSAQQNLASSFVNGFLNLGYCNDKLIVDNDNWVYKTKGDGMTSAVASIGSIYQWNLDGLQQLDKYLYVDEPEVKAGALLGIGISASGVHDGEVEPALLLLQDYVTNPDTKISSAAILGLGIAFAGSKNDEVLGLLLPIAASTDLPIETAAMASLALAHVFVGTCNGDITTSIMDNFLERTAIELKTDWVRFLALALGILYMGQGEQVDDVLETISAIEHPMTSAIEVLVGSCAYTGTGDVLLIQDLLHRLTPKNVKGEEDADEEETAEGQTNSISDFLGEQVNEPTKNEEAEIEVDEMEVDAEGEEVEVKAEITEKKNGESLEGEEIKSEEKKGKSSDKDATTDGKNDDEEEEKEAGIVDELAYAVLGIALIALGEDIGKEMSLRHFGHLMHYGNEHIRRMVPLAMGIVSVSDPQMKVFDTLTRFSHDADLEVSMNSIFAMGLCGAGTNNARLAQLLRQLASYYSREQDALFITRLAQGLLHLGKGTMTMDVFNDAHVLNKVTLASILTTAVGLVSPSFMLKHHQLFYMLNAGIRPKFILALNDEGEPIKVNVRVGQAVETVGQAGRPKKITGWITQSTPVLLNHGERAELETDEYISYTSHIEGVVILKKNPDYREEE
In words: cryo-EM structure.

A further experiment concerns the target Rpt2 (S. cerevisiae, UniProt P40327 1-437). In words: cryo-EM structure.

Sequence of Rpt2 (P40327 whole entry): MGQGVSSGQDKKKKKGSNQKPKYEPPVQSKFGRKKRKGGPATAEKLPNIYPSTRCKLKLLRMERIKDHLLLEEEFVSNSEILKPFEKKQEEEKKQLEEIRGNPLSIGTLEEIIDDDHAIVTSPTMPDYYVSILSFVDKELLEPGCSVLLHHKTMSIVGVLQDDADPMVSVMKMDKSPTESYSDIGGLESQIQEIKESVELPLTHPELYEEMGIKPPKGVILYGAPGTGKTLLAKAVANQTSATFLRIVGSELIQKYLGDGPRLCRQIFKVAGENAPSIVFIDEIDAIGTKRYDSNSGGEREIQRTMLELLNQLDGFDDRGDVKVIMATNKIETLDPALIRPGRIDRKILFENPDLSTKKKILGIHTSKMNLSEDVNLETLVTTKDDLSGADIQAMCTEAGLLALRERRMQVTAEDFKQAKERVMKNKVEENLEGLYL

B1: Rpn11-6xHis (recombinant lid) (enzyme)
chain: MERLQRLMMNSKVGSADTGRDDTKETVYISSIALLKMLKHGRAGVPMEVMGLMLGEFVDDYTVNVVDVFAMPQSGTGVSVEAVDDVFQAKMMDMLKQTGRDQMVVGWYHSHPGFGCWLSSVDVNTQKSFEQLNSRAVAVVVDPIQSVKGKVVIDAFRLIDTGALINNLEPRQTTSNTGLLNKANIQALIHGLNRHYYSLNIDYHKTAKETKMLMNLHKEQWQSGLKMYDYEEKEESNLAATKSMVKIAEQYSKRIEEEKELTEEELKTRYVGRQDPKKHLSETADETLENNIVSVLTAGVNSVAIK
Consider B1, for which the binding result with Rpn8 (recombinant lid) and with Rpn5 (recombinant lid) was “binds” throughout.

B2: 20S core subunit α4 (natural protein)
chain: MSGYDRALSIFSPDGHIFQVEYALEAVKRGTCAVGVKGKNCVVLGCERRSTLKLQDTRITPSKVSKIDSHVVLSFSGLNADSRILIEKARVEAQSHRLTLEDPVTVEYLTRYVAGVQQRYTQSGGVRPFGVSTLIAGFDPRDDEPKLYQTEPSGIYSSWSAQTIGRNSKTVREFLEKNYDRKEPPATVEECVKLTVRSLLEVVQTGAKNIEITVVKPDSDIVALSSEEINQYVTQIEQEKQEQQEQDKKKKSNH
As for B2, the binding result with Rpn1 and with Rpt2 was “binds” throughout.

The record behind these values is publication PMC3285539 (Nature, 2012).
